For series [1], the target named is 10-kD NH2-terminal fragment of the invariant chain (Ii-p10) (mouse). The experiment in a line: SEC + co-IP.
The series “SEC + co-IP” deals with the molecule itself. In words: SEC + co-IP.

For “10-kD NH2-terminal fragment of the invariant chain (Ii-p10) (domain or fragment)”, the stoichiometry N in series [1] amounted to 3.

B1: intact invariant (Ii) chain (natural protein, mouse, UniProt P04441-2 1-215, looked up)
chain: MDDQRDLISNHEQLPILGNRPREPERCSRGALYTGVSVLVALLLAGQATTAYFLYQQQGRLDKLTITSQNLQLESLRMKLPKSAKPVSQMRMATPLLMRPMSMDNMLLGPVKNVTKYGNMTQDHVMHLLTRSGPLEYPQLKGTFPENLKHLKNSMDGVNWKIFESWMKQWLLFEMSKNSLEEKKPTEAPPKEPLDMEDLSSGLGVTRQELGQVTL
As for B1, the “stoichiometry N” value in “SEC + co-IP” was 3.

The values are drawn from article PMC2191985 (The Journal of Experimental Medicine, 1995).
